For orientation: Kd means a measure of binding affinity in units of concentration. A higher Kd goes with a looser complex.

Sequences and labels used below:
B1: #18m (antibody, V domains shown)
VH: EVQLVESGGGLVKPGGSLRLSCAASGFTFTSYRMHWVRQAPGKGLEWVSSITGGGNYIEYADSVKGRFTISRDNAKNSLDLQMNSLRAEDTAIYYCARDMYGLGSYYSPNYFDPWGQGTLVTVSS
VL: QSVLTQPLSVSGAPGQRVTISCTGSSSNIGAGYDVHWYQQVPGTAPKLLIFGSTNRPSGVPDRFSGSKSGASASLAITGLQADDEADYYCQSYDRSLSHVFGTGTKVTVL
notes: Germline-edited (m) form of 2H9, heavy and light chain edited; IgG; also called 2H9 (modified)
B2: 2G4 (antibody, V domains shown)
VH: EVQLVESGGGLVKPGGSLRLSCAASGFTFSSYTMHWVRQAPGKGLEWVSSITGGSSYVDYSASVKGRFTISRDNAQSSLYLQMNSLRAEDTAVYYCARDDYGSGSYSNWFDPWGQGTLVTVSS
VL: QSVLTQPPSVSGAPGQRVTISCTGSSSNIGAGYDVHWYQQVPGTAPKLLIFGSTNRPSGVPDRFSGSKSGTSASLAITGLQADDEADYYCQSYDRSLSHVFGTGTKVTVLG
notes: IgG made in Expi293; also called #1
B3: 4G4 (antibody, V domains shown)
VH: EVQLVESGGGLVKPGGSLRLSCAGSGFTFSSYTMHWVRQAPGKGLEWVSSITGGSSYVDYSASVKGRFTISRDNAQSSLYLQMNSLRAEDTAVYYCARDDYGSGSYSNWFDPWGQGTLVTVSS
VL: QSVLTQPPSVSGAPGQRVTISCTGNSSNLGAGYDVHWYQQLPGTAPKLLIYANTNRPSGVPDRFSGSKSGASASLAITGLQTEDEADYYCQSYDRSLSHVFGTGTKVTVLG
notes: IgG made in Expi293; also called #10; 10
B4: #17m (antibody, V domains shown)
VH: EVQLVESGGGLVQPGGSLRLACAASGFTFSSYTMHWVRQAPGKGLEWVSSITGGSSYVDYSASVKGRFTISRDNAQSSLYLQMNSLRAEDTAVYYCARDDYGSGSYSNWFDPWGQGTLVTVSS
VL: QSVLTQPPSVSGAPGQRVTISCTGSSSNIGAGYDVHWYQQLPGRAPKLLIFANTNRPSGVPDRFSGSKSGASASLAITGLQAEDEADYYCQSYDRSLSHVFGTGTKVTVLG
notes: Germline-edited (m) form of 4E1, light chain edited; IgG; also called 4E1 (modified)
B5: 2H3 (antibody, V domains shown)
VH: EVQLVESGGGVVQSGRSLRLSCAGSGFTFSSYTMHWVRQAPGKGLEWVSSITGGSSYVDYSASVKGRFTISRDNAQSSLYLQMNSLRAEDTAVYYCARDDYGSGSYSNWFDPWGQGTLVTVSS
VL: QSVLTQPPSVSGAPGQRVTISCTGSSSNIGAGYDVHWYQQVPGTAPKLLIFGSTNRPSGVPDRFSGSKSGASASLAITGLQTEDEADYYCQSYDRSLSHVFGTGTKVTVLG
notes: IgG made in Expi293; also called 2F5; #65
B6: 2E9 (antibody, V domains shown)
VH: QVTLKESGGGLVKPGGSLRLSCAGSGFTFSSYTMHWVRQAPGKGLEWVSSITGGSSYVDYSASVKGRFTISRDNAKNSLFLQMNSLRAEDTAVYYCARDDYGSGSYSNWFDPWGQGTLVTVSS
VL: QSVLTQPPSVSGAPGQRVTISCTGSSSNIGAGYDVHWYQQLPGRAPKLLIFANTNRPSGVPDRFSGSKSGASASLAITGLQADDEADYYCQSYDRSLSHVFGTGTKVTVLG
notes: IgG made in Expi293; also called #14; 14
B7: #11m (antibody, V domains shown)
VH: EVQLVESGGGLVKPGGSLRLSCAASGFTFTSYRMHWVRQAPGKGLEWVSSITGGGNYIEYADSVKGRFTISRDNAQSSLYLQMNSLRAEDTAVYYCARDDYGSGSYSNWFDPWGQGTLVTVSS
VL: QSVLTQPPSVSGAPGQRVTISCTGSSSNIGAGYDVHWYQQLPGRAPKLLIFANTNRPSGVPDRFSGSKSGASASLAITGLQADDEADYYCQSYDRSLSHVFGTGTKVTVLG
notes: Germline-edited (m) form of 12E9, light chain edited; IgG; also called 12E9 (modified)
B8: 12B11 (antibody, V domains shown)
VH: EVQLVESGGGVVQPGRSLRLACAASGFTFNSYAMHWVRQAPGKGLEWVSSITGGSSYVDYSASVKGRFTISRDNAQSSLYLQMNSLRAEDTAVYYCARDMYGLGSYYSPNYFDPWGQGTLVTVSS
VL: SYELTQPPSVSGAPGQRVTISCTGSSSNIGAGYDVHWYQQLPGRAPKLLIFANTNRPSGVPDRFSGSKSGTSASLAITGLQAEDEADYYCQSYDSSLSYVFGTGTKVTVLG
notes: IgG made in Expi293; also called #15; 15
B9: #20m (antibody, V domains shown)
VH: EVQLVESGGGLVKPGGSLRLSCAASGFTFTSYRMHWVRQAPGKGLEWVSSITGGGNYIEYADSVKGRFTISRDNAKNSLDLQMNSLRAEDTAIYYCARDMYGLGSYYSPNYFDPWGQGTLVTVSS
VL: QSVLTQPPSVSGAPGQRVTISCTGSSSNIGAGYDVHWYQQVPGTAPKLLIFGSTNRPSGVPDRFSGSKSGASASLAITGLQTEDEADYYCQSYDRSLSHVFGTGTKVTVLG
notes: Germline-edited (m) form of 3E10, light chain edited; IgG; also called 3E10 (modified)
B10: 2H1 (antibody, V domains shown)
VH: QVTLKESGGGVVQSGRSLRLSCAASGFTFSSYTMHWVRQAPGKGLEWVSSITGGSSYVDYSASVKGRFTISRDNAQSSLYLQMNSLRAEDTAVYYCARDDYGSGSYSNWFDPWGQGTLVTVSS
VL: QSVLTQPPSVSGAPGQRVTISCTGSSSNIGAGYDVHWYQQLPGRAPKLLIYANTNRPSGVADRFSGSKSGASASLAITGLQADDEADYYCQSYDRSLSHVFGTGTKVTVLG
notes: IgG made in Expi293; also called #9
B11: 3H8 (antibody, V domains shown)
VH: EVQLVESGGGLVKPGGSLRLSCAGSGFTFSSYTMHWVRQAPGKGLEWVSSITGGSSYVDYSASVKGRFTISRDNAQSSLYLQMNSLRAEDTAVYYCARDDYGSGSYSNWFDPWGRGTTVTVSS
VL: QPVLTQPLSASGTPGQRVTISCTGSSSNIGAGYDVHWYQQLPGRAPKLLIFANTNRPSGVPDRFSGSKSGTSASLAITGLQAEDEADYYCQSYDRSLSHVFGTGTKVTVLG
notes: IgG made in Expi293; also called #16; 16
B12: 4E1 (antibody, V domains shown)
VH: EVQLVESGGGLVQPGGSLRLACAASGFTFSSYTMHWVRQAPGKGLEWVSSITGGSSYVDYSASVKGRFTISRDNAQSSLYLQMNSLRAEDTAVYYCARDDYGSGSYSNWFDPWGQGTLVTVSS
VL: SYELTQPPSVSGAPGQRVTISCTGSSSNIGAGYDVHWYQQLPGRAPKLLIFANTNRPSGVPDRFSGSKSGASASLAITGLQAEDEADYYCQSYDRSLSHVFGTGTKVTVLG
notes: IgG made in Expi293; also called #17; 17
B13: #16m (antibody, V domains shown)
VH: EVQLVESGGGLVKPGGSLRLSCAGSGFTFSSYTMHWVRQAPGKGLEWVSSITGGSSYVDYSASVKGRFTISRDNAQSSLYLQMNSLRAEDTAVYYCARDDYGSGSYSNWFDPWGRGTTVTVSS
VL: QSVLTQPLSASGTPGQRVTISCTGSSSNIGAGYDVHWYQQLPGRAPKLLIFANTNRPSGVPDRFSGSKSGTSASLAITGLQAEDEADYYCQSYDRSLSHVFGTGTKVTVLG
notes: Germline-edited (m) form of 3H8, light chain edited; IgG; also called 3H8 (modified)
B14: 12C11 (antibody, V domains shown)
VH: EVQLVESGGGLVKPGGSLRLSCAASGFTFTSYRMHWVRQAPGKRLEWVSSITGGGNYIEYADSVKGRFTISRDNAKNSLDLQMNSLRAEDTAIYYCARDMYGLGSYYSPNYFDPWGQGTLVTVSS
VL: QSVLTQPPSVSGAPGQRVTISCTGSSSNIGAGYDVHWYQQVPGTAPKLLIFGSTNRPSGVPDRFSGSKSGASASLAITGLQTEDEADYYCQSYDRSLSHVFGTGTKVTVLG
notes: IgG made in Expi293; also called #19; 19
B15: 3E10 (antibody, V domains shown)
VH: EVQLVESGGGLVKPGGSLRLSCAASGFTFTSYRMHWVRQAPGKGLEWVSSITGGGNYIEYADSVKGRFTISRDNAKNSLDLQMNSLRAEDTAIYYCARDMYGLGSYYSPNYFDPWGQGTLVTVSS
VL: QPVLTQPPSVSGAPGQRVTISCTGSSSNIGAGYDVHWYQQVPGTAPKLLIFGSTNRPSGVPDRFSGSKSGASASLAITGLQTEDEADYYCQSYDRSLSHVFGTGTKVTVLG
notes: IgG made in Expi293; also called #20; 20
B16: #12m (antibody, V domains shown)
VH: EVQLVESGGGLVKPGGSLRLSCAGSGFAFSSYTMHWVRQAPGKGLEWVSSITGGSSYLDYAHSVKGRFTISRDNGQNSLFLQMNSLRTEDTAVYYCARDDYGSGSYSNYFDPWGQGTLVTVSS
VL: QSVLTQPPSVSGAPGQRVTISCTGSSSNIGAGYDVHWYQQVPGTAPKLLIFGSTNRPSGVPDRFSGSKSGASASLAITGLQTEDEADYYCQSYDRSLSHVFGTGTKVTVLG
notes: Germline-edited (m) form of 4F11, light chain edited; IgG; also called 4F11 (modified)
B17: #15m (antibody, V domains shown)
VH: EVQLVESGGGVVQPGRSLRLACAASGFTFNSYAMHWVRQAPGKGLEWVSSITGGSSYVDYSASVKGRFTISRDNAQSSLYLQMNSLRAEDTAVYYCARDMYGLGSYYSPNYFDPWGQGTLVTVSS
VL: QSVLTQPPSVSGAPGQRVTISCTGSSSNIGAGYDVHWYQQLPGRAPKLLIFANTNRPSGVPDRFSGSKSGTSASLAITGLQAEDEADYYCQSYDSSLSYVFGTGTKVTVLG
notes: Germline-edited (m) form of 12B11, light chain edited; IgG; also called 12B11 (modified)
B18: 12E9 (antibody, V domains shown)
VH: EVQLVESGGGLVKPGGSLRLSCAASGFTFTSYRMHWVRQAPGKGLEWVSSITGGGNYIEYADSVKGRFTISRDNAQSSLYLQMNSLRAEDTAVYYCARDDYGSGSYSNWFDPWGQGTLVTVSS
VL: QTVVTQEPSVSGAPGQRVTISCTGSSSNIGAGYDVHWYQQLPGRAPKLLIFANTNRPSGVPDRFSGSKSGASASLAITGLQADDEADYYCQSYDRSLSHVFGTGTKVTVLG
notes: IgG made in Expi293; also called #11; 11
B19: 2H9 (antibody, V domains shown)
VH: QVTLKESGGGLVKPGGSLRLSCAASGFTFTSYRMHWVRQAPGKGLEWVSSITGGGNYIEYADSVKGRFTISRDNAKNSLDLQMNSLRAEDTAIYYCARDMYGLGSYYSPNYFDPWGQGTLVTVSS
VL: SYELTQPLSVSGAPGQRVTISCTGSSSNIGAGYDVHWYQQVPGTAPKLLIFGSTNRPSGVPDRFSGSKSGASASLAITGLQADDEADYYCQSYDRSLSHVFGTGTKVTVLG
notes: IgG made in Expi293; also called #18; 18
B20: 10E7 (antibody, V domains shown)
VH: EVQLVESGGGLVKPGGSLRLSCAASGFTFTSYRMHWVRQAPGKGLEWVSSITGGGNYIEYADSVKGRFTISRDNAKNSLDLQMNSLRAEDTAIYYCARDMYGLGSYYSPNYFDSWGQGTLVTVSS
VL: QSVLTQPPSVSGAPGQRVTISCTGSSSNIGAGYDVHWYQQLPGRAPKLLIFANTNRPSGVPDRFSGSKSGASASLAITGLQADDEADYYCQSYDRSLSHVFGTGTKVTVLG
notes: IgG made in Expi293; also called #13; 13
B21: 4F11 (antibody, V domains shown)
VH: EVQLVESGGGLVKPGGSLRLSCAGSGFAFSSYTMHWVRQAPGKGLEWVSSITGGSSYLDYAHSVKGRFTISRDNGQNSLFLQMNSLRTEDTAVYYCARDDYGSGSYSNYFDPWGQGTLVTVSS
VL: QPVLTQPPSVSGAPGQRVTISCTGSSSNIGAGYDVHWYQQVPGTAPKLLIFGSTNRPSGVPDRFSGSKSGASASLAITGLQTEDEADYYCQSYDRSLSHVFGTGTKVTVLG
notes: IgG made in Expi293; also called #12; 12

DS-Cav1 (RSV F-protein, pre-form, in-house), sequence (P03420 26-524): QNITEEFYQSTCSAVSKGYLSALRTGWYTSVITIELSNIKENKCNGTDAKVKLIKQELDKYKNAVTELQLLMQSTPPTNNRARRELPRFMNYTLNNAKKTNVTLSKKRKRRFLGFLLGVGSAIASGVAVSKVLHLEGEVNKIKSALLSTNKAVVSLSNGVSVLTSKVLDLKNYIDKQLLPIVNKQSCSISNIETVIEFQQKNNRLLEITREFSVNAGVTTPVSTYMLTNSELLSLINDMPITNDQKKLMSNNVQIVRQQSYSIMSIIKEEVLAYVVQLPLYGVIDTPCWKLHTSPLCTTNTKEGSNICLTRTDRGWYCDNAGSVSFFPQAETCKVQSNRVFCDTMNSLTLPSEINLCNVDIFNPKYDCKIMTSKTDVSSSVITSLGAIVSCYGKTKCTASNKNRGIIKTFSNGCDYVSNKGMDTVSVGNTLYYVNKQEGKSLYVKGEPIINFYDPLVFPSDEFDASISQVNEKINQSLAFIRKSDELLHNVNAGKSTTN

This experiment addresses DS-Cav1 (RSV F-protein, pre-form, in-house) (respiratory syncytial virus (RSV), UniProt P03420 26-513). Kind of experiment: ELISA, coated DS-Cav1, IgG titrated. For orientation: In an ELISA, binding on a coated surface is turned into a signal by an enzyme label.
In the case of B1, the Kd is approximately 1.84 nM.

B2 showed a Kd of approximately 1.01 nM. The molecule B3 returned an equilibrium dissociation constant (Kd) of approximately 0.38 nM. Turning to B4, the dissociation constant Kd is approximately 1.13 nM. In turn, B5 gave a dissociation constant (Kd) of approximately 0.98 nM. Take B6: the equilibrium dissociation constant (Kd) was approximately 0.48 nM.

For B7, the Kd is approximately 2.01 nM. For the molecule B8, the Kd was approximately 0.72 nM. As for B9, the Kd is approximately 0.88 nM.

B10 yielded a Kd of approximately 1.95 nM. B11 displayed a dissociation constant Kd of approximately 0.51 nM. With B12, the Kd was approximately 0.56 nM. The molecule B13 returned a dissociation constant (Kd) of approximately 0.97 nM.

The molecule B14 gave an equilibrium dissociation constant (Kd) of approximately 0.72 nM.

Take B15: the dissociation constant Kd was approximately 0.52 nM.

As to B16, the dissociation constant (Kd) is approximately 1.82 nM. The molecule B17 displayed a Kd of approximately 1.2 nM. As for B18, the figure is approximately 0.57 nM; as for B19, approximately 0.38 nM; as for B20, approximately 1.73 nM.

With B21, the Kd is approximately 0.43 nM.

The record behind these values is patent publication US20240182547A1 (MOGAM INSTITUTE FOR BIOMEDICAL RESEARCH, published 2024).
